In experiment [1] the target is MalE-MglC (Myxococcus xanthus). Put plainly: mass photometry.
Experiment [2] addresses MalE-RomR (Myxococcus xanthus). Put plainly: mass photometry.
For the next experiment, the target named is T1, MglA-His6 (Myxococcus xanthus, UniProt Q1DB04 1-195).
T1 sequence: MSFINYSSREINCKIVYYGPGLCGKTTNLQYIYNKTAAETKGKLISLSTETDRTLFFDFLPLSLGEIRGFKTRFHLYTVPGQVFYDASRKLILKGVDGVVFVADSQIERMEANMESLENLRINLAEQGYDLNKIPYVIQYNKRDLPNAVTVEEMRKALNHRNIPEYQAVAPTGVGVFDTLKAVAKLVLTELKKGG
Kind of experiment: pull-down.

Several values for one entry are separate records, joined by “and”; a condition that tells them apart may be missing. Equal values may be shown once.

As usually defined, the stoichiometry N is a count of units in the complex or per binding partner.

As for MalE-MglC (natural protein), the stoichiometry N in experiment [1] was 2.

In experiment [1], MalE-RomR (natural protein) displayed a stoichiometry N (RomR:MglC (2:2)) of 1 and a stoichiometry N (RomR:MglC (3:2)) of 1.5. The stoichiometry N in experiment [2] was 3 and 2.

B1: His6-MglB (natural protein, Myxococcus xanthus)
chain: MGTQLVMYEEEFTKINAVCDRLTKDANAKVVFLVDKNGQLISSAGQTQNIDTTSLASLTAGNVAAMGGLAKLIGENEFPNQFHEGAKDSLYMTIVGSRVVLVVIFDNRTSLGLVRLRIKKASDELTKIFESLVKKTDSPGAGSPFAEISDDDIDNLFSE
For B1, in the experiment with MglA-His6, the binding result is “binds”.

Source of the values: paper doi:10.1101/2022.12.09.519731 (bioRxiv, 2022).
